The text below walks through data of article PMC3197598.

The target of the experiment is fibrin (human fibrinogen treated with alpha-thrombin) (human) (UniProt P02679). Nature of the experiment: ELISA; human fibrinogen coated overnight on MaxSorb 96-well plates, wells treated with PBS (fibrinogen) or 100 nM alpha-thrombin in 1% sodium-citrate/PBS for one hour at room temperature (fibrin); ClfA in 1% sodium-citrate added at increasing concentrations for one hour; bound ClfA detected with polyclonal anti-ClfA and anti-rabbit-HRP; non-linear regression, one-site saturation. (In an ELISA, binding on a coated surface is turned into a signal by an enzyme label.)

clumping factor A (ClfA), purified recombinant, sequence (Q53653 40-899): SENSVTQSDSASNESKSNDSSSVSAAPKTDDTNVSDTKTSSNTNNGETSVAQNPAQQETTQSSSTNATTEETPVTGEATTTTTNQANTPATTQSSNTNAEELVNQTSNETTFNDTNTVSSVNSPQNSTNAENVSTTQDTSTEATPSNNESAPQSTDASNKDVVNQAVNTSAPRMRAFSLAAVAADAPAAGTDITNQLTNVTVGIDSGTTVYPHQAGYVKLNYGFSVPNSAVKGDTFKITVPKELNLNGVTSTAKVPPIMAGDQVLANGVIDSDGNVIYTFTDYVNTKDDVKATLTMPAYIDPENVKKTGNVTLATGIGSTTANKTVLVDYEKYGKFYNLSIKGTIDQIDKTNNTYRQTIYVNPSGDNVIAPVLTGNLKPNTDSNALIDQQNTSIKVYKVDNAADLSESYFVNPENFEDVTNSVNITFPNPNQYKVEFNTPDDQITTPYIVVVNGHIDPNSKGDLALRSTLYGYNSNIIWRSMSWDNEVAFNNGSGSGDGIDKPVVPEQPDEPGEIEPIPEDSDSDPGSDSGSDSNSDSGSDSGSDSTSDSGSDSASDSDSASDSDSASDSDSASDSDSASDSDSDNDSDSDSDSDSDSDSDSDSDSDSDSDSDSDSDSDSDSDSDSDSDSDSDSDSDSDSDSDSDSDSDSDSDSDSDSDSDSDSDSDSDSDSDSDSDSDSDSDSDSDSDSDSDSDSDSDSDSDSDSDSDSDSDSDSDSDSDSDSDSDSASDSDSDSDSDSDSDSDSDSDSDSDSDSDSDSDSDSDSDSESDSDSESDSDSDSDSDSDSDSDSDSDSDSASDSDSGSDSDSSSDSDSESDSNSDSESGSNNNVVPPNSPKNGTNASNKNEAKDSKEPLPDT

A word on the Kd: it is a measure of binding affinity in units of concentration. Low readings indicate tighter binding, high ones weaker binding. For the substance “clumping factor A (ClfA), purified recombinant (from UniProt Q53653 40-899) (natural protein)”, the Kd turned out to be 0.662 µM.
